Paper PMC3756924 (Molecular Biology of the Cell, 2013)

T1: GST-Sec24p (S. cerevisiae, UniProt P40482 1-926)
T1 sequence (looked up): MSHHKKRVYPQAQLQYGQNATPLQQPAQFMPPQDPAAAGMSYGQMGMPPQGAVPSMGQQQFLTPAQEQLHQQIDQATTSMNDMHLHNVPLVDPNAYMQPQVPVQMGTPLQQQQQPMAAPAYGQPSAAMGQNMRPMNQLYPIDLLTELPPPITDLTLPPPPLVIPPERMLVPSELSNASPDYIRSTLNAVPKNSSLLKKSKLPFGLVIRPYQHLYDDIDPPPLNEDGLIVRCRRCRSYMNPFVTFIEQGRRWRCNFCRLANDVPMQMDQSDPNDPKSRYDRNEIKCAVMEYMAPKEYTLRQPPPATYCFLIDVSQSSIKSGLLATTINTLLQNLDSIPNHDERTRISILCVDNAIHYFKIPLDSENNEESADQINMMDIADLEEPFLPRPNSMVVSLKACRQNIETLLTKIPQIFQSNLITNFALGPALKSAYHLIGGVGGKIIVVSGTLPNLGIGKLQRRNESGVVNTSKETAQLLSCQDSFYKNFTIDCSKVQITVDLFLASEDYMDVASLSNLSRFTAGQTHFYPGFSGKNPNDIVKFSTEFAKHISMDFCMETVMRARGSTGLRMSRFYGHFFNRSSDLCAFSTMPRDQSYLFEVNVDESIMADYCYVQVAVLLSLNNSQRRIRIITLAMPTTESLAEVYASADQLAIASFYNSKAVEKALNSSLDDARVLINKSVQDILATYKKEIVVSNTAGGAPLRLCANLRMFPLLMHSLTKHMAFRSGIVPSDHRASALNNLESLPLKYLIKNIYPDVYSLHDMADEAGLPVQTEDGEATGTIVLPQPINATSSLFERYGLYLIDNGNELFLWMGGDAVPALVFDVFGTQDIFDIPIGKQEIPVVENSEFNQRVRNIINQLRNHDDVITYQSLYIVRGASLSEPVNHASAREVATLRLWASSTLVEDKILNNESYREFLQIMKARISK

T2: GST-Lst1p (S. cerevisiae, UniProt P38810 1-929)
T2 sequence (looked up): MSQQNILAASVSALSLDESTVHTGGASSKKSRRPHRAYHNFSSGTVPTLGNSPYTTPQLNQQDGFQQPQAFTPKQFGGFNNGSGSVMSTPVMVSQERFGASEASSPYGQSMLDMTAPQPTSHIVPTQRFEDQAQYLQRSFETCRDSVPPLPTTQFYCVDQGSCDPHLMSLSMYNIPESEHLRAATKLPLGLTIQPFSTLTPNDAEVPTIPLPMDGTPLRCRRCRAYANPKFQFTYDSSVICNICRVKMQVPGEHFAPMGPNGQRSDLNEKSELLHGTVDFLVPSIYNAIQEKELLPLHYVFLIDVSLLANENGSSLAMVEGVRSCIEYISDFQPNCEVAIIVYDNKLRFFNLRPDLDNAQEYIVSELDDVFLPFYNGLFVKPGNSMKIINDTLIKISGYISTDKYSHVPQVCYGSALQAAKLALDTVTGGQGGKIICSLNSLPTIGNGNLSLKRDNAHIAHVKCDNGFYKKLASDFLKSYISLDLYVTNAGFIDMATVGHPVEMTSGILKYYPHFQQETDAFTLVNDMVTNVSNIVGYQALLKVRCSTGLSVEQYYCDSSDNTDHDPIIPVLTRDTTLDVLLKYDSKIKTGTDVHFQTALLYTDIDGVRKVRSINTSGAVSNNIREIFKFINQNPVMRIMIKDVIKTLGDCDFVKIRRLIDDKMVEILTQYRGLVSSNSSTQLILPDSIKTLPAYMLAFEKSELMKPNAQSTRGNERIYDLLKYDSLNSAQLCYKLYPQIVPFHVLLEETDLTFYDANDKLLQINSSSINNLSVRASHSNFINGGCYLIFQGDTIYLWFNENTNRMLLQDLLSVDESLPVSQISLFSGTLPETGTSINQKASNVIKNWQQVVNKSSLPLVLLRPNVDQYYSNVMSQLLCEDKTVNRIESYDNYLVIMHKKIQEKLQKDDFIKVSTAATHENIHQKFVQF

T3: GST-Sec31p (aa 1–500) (S. cerevisiae, UniProt P38968 1-500)
T3 sequence (looked up): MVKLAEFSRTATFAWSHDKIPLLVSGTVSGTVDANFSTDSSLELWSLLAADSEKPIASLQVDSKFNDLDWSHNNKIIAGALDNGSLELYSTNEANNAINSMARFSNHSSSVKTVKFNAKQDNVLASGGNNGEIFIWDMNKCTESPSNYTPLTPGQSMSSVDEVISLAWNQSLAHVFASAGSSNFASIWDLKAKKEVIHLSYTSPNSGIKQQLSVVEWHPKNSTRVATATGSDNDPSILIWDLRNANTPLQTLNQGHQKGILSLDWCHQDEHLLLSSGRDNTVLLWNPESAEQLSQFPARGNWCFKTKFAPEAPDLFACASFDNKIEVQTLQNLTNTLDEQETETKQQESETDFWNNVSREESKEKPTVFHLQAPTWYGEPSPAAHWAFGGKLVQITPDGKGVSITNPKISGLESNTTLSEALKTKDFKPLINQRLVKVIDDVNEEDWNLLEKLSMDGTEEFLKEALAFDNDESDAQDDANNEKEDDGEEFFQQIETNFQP

T4: GST-Sec23p (S. cerevisiae, UniProt P15303 1-768)
T4 sequence (looked up): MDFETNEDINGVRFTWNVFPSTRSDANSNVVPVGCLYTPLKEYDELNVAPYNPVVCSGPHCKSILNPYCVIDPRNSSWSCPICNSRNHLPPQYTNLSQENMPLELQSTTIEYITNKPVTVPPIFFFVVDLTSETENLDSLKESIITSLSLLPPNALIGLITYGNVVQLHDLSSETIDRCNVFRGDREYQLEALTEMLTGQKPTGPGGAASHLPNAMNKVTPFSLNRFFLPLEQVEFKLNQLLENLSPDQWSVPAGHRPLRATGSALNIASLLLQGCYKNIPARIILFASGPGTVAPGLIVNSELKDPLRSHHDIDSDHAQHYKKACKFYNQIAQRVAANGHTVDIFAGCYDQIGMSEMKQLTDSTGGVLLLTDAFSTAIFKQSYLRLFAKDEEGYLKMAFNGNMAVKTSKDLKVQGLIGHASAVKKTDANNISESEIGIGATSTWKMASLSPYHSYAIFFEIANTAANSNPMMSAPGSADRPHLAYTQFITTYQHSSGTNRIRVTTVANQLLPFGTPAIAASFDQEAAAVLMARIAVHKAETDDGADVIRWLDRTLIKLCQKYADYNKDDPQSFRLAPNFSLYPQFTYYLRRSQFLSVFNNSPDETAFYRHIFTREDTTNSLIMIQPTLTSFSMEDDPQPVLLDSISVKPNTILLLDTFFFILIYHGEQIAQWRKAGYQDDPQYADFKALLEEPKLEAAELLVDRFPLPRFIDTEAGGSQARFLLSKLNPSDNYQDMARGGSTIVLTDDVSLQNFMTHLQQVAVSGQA

B1: hexahistidine (His6)-Sit4p (enzyme, S. cerevisiae, UniProt P20604 1-311, looked up)
chain: MVSRGPDEWLETIKKCQALTENEMKQLCEMVKELLMEESNIQPVQTPVTVCGDIHGQFHDLLELFRTAGGFPDDINYIFLGDYVDRGYYSLETFTLLMCLKVKYPAKITLVRGNHESRQITQVYGFYEECLNKYGSTTVWKYCCQVFDFLTLAAIIDGKILCVHGGLSPEIRMLDQIRVLSRAQEVPHEGGFSDLLWSDPDNVEAWQVSPRGAGWLFGSKVAREFNHVNGLNLIARAHQLVMEGFKYHFPEKDVVTVWSAPNYCYRCGNVASVMKVDEDLEPTFKIFSAVPDDYIRESTANHNNQRAGYFL

Legend:
Assay in all cases: pull-down
GST-Sec24p = molecular target: T1, GST-Sec24p
GST-Lst1p = molecular target: T2, GST-Lst1p
GST-Sec31p (aa 1–500) = molecular target: T3, GST-Sec31p (aa 1–500)
GST-Sec23p = molecular target: T4, GST-Sec23p
[1] = molecular target: B1

Row | binding result (GST-Sec24p) | binding result (GST-Lst1p) | binding result (GST-Sec31p (aa 1–500)) | binding result (GST-Sec23p) | binding result [1] | Binder
1 | binds | binds | binds | binds |  | B1
2 |  |  |  |  | binds | GST-Sec31p (aa 1115–1273) (domain or fragment, S. cerevisiae, UniProt P38968 1115-1273, looked up) RSNKLASIEQNPSQGATYPPTLSSSASPLQPSQPPTLASQVNTSAENVSHEIPADQQPIVDFLKEELARVTPLTPKEYSKQLKDCDKRLKILFYHLEKQDLLTQPTIDCLHDLVALMKEKKYKEAMVIHANIATNHAQEGGNWLTGVKRLIGIAEATLN
